B1: HDV Ribozyme (parent)
chain: GGCCGGCAUGGUCCCAGCCUCCUCGCUGGCGCCGGCUGGGCAACAUUCCGAGGGGACCGUCCCCUCGGUAAUGGCGAAUGGGACCCA

Variants of: B1
Assay: self-cleavage, relative activity (ratio to wild type); higher = more cleavage; co-transcriptional

Variant	self-cleavage
C18U U47G	0.608
C19A U65C	0.155
C19A U65A	0.273
C19A U65G	0.189
C18A G25C	0.0405
C18A G25A	0.133
G17U G74A	0.129
G17C U27C	0
C18U A42C	0.185
G17U A70G	0.674
G17C U20C	0
G17U G31C	0.0361
C19A C44G	0.0615
C18U C86G	0.704
C18G G59C	0.26
C18A G40C	0.162
C19A A83U	0.138
C19A A83C	0.0426
G17U C84G	0.439
C18A C26G	0.119
C18A C26U	0.312
C18A C26A	0.244
G17C C19U	0.128
C19A G52U	0.149

Variant	self-cleavage
G17U C64G	0.495
C19A U20A	0.0234
G17C C58A	0.388
C18A G38A	0.113
C18G C57U	0.237
C18G C57G	0.133
C18U C85U	0.582
C18G C26A	0.175
C18G C26G	0.0831
C18G U65A	0.138
C19A C57G	0.119
C19A C57A	0.0801
C18U C48U	0.639
C18U C48G	0.683
G17U G55C	0.453
G17U G55U	0.415
C18A C33U	0.0489
G17C G74U	0.0554
C19A G35U	0.115
C19A G35A	0.111
C18G U60A	0
C18G U60C	0.0692
C19A G81U	0.133
C18A G55C	0.133

Variant	self-cleavage
C18A G55U	0.197
C18G C66U	0.166
C18A C66G	0.0639
G17U U23G	0.0692
C18A U37A	0.0462
C18A U37G	0.185
C18A U37C	0.0361
G17C G80U	0.0588
G17C G80A	0.0252
C18U A83G	0.356
C18A A51C	0.0755
C18G G25U	0.0386
C19A G53U	0.157
C19A G53A	0.149
G17U A43G	0.237
C19A C58A	0.095
C19A C84U	0.0804
G17C C49G	0.107
G17C C49A	0.467
G17C U23C	0.208
G17U C26U	0.654
G17U C26G	0.608
C18G G39A	0
G17C C64A	0.314

Variant	self-cleavage
G17C C64U	0.0475
C18G U79C	0.0639
C18A C86A	0.106
C18A C86U	0.0898
C18A A42G	0.102
G17U G29A	0.0314
G17C C32U	0
C18A A77C	0
C18A C75G	0.133
C18A G67C	0.123
C18A G67U	0.117
C18A G73A	0.0755
G17U U27C	0.308
G17C U65A	0.353
G17C U65G	0.249
G17U C22A	0.0831
C18U U46A	0.291
C19A C33G	0.0475
C18A A45C	0.208
C19A C24A	0.0831
G17C C18A	0
G17U U72G	0
G17U U47A	0.256
C18U G80U	0.0989

Variant	self-cleavage
G17C G28U	0.0707
G17C G28C	0.125
C19A C32A	0.0604
G17U G59A	0.465
G17U U60C	0.601
G17U C63U	0.47
C18A A56G	0.162
C18A G28C	0.095
C18U G74C	0.0519
C18U G74U	0.166
C19A G54C	0.0817
C19A G54U	0.201
C18U G73C	0.217
G17U C36U	0.166
G17U G54C	0.536
G17U G54U	0.546
G17U G34A	0.13
C19A G59U	0.134
G17U C58A	0.847
G17C C86G	0.131
G17C C86A	0.365
C18G C86U	0.0875
G17U G40U	0.381
C18A C32A	0.106

Variant	self-cleavage
C18G G52C	0.0554
C19A U46A	0.0707
G17U C41A	0.104
G17U C41U	0.253
C18U C49A	0.623
C18U C49G	0.723
C18G G67A	0.101
C18U A78G	0.285
C18U A78U	0.0707
C19A A77G	0.0302
G17C C24A	0.0519
G17C G67U	0.358
G17C G67A	0.249
C18G U47C	0.185
C18G G54A	0.125
C18G G54C	0.0475
C19A G34A	0.0755
C19A G34C	0.0739
C18U C32G	0.032
C18G G82U	0.219
C18A C22A	0.117
C19G A45G	0.106
G17U C57A	0.689
G17U G39A	0.128

Variant	self-cleavage
G17U C86G	0.583
C19A C49U	0.185
C18U G39C	0.0405
C19G A42G	0
C18U G76C	0.978
G17C C26A	0.369
G17C C26U	0.359
C18G A71G	0
C18U G68A	0.739
C18G G31A	0.0811
C18A U23C	0
C18G A77C	0.178
C18G A77G	0.0755
C18G A78G	0
C18G A78C	0
G17C C21A	0.0519
C18A C84U	0.0997
G17U A51G	0.34
C19A G80C	0.0665
C18U U65A	0.635
C18U U65G	0.554
C18U C33A	0.0354
C18G C62G	0
